Data reported in US20040141918.

System: Int6 protein expressed in bacteria using the QUIA Express Type 4 vector, purified
Sequence (chain, as listed by the source): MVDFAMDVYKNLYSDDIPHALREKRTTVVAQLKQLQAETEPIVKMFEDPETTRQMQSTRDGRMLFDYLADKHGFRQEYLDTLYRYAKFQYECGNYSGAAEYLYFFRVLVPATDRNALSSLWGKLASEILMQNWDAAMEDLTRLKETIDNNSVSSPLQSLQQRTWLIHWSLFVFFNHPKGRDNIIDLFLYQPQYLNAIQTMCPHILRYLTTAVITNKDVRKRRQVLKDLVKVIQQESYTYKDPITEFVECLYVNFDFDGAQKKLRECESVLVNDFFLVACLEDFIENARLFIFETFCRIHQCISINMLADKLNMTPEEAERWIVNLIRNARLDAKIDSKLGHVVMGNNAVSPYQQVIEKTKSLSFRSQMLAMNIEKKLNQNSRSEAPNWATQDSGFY

protein kinase C
phosphorylation by PKC: shown to be phosphorylated by PKC (data not shown)
